Test results reported in PMC10192046.

Molecular target: T1, interferon regulatory factor 3 (human (endogenous in THP-1)), Q14653
T1 chain: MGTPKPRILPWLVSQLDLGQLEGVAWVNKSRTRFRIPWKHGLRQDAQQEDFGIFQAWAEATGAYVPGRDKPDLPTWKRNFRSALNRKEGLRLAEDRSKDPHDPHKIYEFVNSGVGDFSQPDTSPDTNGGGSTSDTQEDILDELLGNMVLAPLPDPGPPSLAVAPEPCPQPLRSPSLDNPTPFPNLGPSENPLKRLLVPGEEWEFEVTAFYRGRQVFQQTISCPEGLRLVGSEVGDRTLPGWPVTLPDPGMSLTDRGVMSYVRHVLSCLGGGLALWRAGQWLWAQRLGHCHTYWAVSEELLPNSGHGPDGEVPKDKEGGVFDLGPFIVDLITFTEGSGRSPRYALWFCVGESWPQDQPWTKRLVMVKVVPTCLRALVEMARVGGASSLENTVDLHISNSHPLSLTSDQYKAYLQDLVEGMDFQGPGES
Test: native gel or EMSA
Conditions: remark: other sources report otherwise

B1: interferon regulatory factor 3, Q14653 1-427 (natural protein)
chain: MGTPKPRILPWLVSQLDLGQLEGVAWVNKSRTRFRIPWKHGLRQDAQQEDFGIFQAWAEATGAYVPGRDKPDLPTWKRNFRSALNRKEGLRLAEDRSKDPHDPHKIYEFVNSGVGDFSQPDTSPDTNGGGSTSDTQEDILDELLGNMVLAPLPDPGPPSLAVAPEPCPQPLRSPSLDNPTPFPNLGPSENPLKRLLVPGEEWEFEVTAFYRGRQVFQQTISCPEGLRLVGSEVGDRTLPGWPVTLPDPGMSLTDRGVMSYVRHVLSCLGGGLALWRAGQWLWAQRLGHCHTYWAVSEELLPNSGHGPDGEVPKDKEGGVFDLGPFIVDLITFTEGSGRSPRYALWFCVGESWPQDQPWTKRLVMVKVVPTCLRALVEMARVGGASSLENTVDLHISNSHPLSLTSDQYKAYLQDLVEGMDFQGPGES
stoichiometry N: 2
